According to US20210386836:

Assays:
C1 inhibitor, P05155 = target: T1, C1 inhibitor, P05155
T1 chain: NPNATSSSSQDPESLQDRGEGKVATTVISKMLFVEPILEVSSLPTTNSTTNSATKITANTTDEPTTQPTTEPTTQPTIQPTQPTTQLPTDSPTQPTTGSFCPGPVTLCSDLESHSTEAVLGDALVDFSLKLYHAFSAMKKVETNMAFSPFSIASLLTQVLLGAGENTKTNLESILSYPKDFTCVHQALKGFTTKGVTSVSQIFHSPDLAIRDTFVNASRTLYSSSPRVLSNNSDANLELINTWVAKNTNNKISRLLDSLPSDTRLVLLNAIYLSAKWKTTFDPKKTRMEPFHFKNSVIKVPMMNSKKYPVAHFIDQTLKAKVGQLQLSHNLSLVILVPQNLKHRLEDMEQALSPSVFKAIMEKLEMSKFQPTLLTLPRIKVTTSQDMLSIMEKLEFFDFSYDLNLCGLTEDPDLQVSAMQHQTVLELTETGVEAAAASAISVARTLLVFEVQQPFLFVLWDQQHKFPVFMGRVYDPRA

C2, P06681 = target: T2, C2, P06681
T2 chain: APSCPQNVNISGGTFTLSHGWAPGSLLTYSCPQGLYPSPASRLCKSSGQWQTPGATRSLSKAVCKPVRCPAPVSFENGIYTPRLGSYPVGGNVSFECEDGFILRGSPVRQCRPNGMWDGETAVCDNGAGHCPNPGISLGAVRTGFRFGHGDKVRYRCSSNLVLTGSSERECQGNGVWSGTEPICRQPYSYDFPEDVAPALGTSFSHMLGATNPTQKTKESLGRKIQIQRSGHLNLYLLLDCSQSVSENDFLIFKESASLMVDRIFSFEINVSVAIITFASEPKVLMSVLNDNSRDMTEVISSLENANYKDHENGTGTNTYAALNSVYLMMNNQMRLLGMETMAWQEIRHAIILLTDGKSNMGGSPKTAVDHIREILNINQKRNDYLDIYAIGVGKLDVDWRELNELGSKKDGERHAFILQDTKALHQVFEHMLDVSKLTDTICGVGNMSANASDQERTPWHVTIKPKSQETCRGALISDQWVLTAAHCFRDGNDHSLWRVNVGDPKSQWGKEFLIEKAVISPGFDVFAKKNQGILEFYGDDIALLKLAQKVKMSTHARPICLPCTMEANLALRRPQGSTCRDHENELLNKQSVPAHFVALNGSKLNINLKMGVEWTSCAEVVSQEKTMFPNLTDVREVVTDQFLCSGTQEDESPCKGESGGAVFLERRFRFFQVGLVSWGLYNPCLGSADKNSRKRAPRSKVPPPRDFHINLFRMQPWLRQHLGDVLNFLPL

[1] = target: T3, C-Reactive protein, P02741
T3 chain: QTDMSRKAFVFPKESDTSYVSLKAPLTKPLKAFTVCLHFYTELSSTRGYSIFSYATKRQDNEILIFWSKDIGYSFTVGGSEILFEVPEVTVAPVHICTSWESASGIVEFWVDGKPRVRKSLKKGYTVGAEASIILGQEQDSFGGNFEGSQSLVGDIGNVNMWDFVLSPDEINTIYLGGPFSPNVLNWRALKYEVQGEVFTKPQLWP

C2a, P06681 = target: T4, C2a, P06681
T4 chain: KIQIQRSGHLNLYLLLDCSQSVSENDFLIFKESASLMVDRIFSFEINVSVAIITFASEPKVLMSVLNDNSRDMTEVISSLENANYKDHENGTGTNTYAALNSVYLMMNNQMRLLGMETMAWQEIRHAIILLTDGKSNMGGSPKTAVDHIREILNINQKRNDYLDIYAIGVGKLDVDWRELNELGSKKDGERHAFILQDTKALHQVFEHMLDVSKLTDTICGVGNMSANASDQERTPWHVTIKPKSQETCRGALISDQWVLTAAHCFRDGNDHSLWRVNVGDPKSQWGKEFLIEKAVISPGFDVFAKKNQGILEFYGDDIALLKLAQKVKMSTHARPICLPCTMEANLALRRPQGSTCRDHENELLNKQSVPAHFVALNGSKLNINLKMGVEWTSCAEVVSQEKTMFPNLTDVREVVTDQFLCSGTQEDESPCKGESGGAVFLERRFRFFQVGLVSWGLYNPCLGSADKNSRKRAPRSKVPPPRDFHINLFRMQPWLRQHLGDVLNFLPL

Chain of C3a, P01024 (P01024 672-748): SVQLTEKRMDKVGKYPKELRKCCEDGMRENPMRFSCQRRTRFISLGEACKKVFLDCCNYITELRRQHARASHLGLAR
Chain of BSA, P02769 (P02769 25-607): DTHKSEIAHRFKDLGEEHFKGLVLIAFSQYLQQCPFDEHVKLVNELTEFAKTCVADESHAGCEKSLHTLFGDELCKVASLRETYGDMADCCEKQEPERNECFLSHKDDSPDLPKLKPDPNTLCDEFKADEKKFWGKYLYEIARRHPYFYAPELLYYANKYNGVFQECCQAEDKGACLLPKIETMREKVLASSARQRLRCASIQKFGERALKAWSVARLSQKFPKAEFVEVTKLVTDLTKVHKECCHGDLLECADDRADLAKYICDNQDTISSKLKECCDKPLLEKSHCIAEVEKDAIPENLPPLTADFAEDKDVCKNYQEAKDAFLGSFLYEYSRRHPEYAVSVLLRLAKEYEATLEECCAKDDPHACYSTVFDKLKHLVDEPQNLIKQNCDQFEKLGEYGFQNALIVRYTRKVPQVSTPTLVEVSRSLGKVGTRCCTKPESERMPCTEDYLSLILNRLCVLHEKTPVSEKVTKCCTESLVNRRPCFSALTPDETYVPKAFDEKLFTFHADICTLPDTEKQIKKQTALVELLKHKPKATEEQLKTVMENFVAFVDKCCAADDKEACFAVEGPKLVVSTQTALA
Chain of Properidin, P27918 (P27918 28-469): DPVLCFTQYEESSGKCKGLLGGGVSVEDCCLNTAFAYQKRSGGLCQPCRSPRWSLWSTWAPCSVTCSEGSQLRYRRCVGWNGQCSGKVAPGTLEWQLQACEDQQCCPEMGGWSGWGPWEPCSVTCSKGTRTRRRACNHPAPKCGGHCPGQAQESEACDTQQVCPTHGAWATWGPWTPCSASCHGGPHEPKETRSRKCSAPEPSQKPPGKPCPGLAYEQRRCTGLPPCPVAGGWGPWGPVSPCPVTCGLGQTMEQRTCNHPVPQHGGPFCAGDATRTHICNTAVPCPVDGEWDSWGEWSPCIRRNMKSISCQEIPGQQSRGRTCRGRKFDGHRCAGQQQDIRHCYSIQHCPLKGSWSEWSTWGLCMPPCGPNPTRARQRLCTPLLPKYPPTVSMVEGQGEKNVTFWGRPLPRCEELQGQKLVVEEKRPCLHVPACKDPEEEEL
Chain of mouse C3a, P01027 (P01027 671-748): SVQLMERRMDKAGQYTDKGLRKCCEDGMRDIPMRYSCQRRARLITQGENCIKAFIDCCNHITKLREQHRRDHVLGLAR

B1: PrtI(ProB) (protein)
chain: AIGETSVQNVKVSVAKNESDSQKFNNSQNLEQKTPQAAAANQNGSQVQNDHTETQLQNQQTTQSQVTQAHTEENNASSIPEPANQADHVKGNVQSAWDQGYKGQNTVVAVIDSGADTSHKDFQTMPSNPKLKQEDVQSKIDQQGYGKYVNEKFPYVYNYADRDNDYIKSDDNNQXNDSPHGQHVSGIIAADGHPEGDQQYVVGVAPEAQLMQLRVFGQFSDEKTDDVARAIYDATNLGADVIQMSLGQGVADQQLTNIEQKAVQYAIDHGVFVSISASNNGNSASVDNPSKVTAKGYGSGSEAGNYEPLNSGTVANPGASKNALTVAAETSGTGKDSDMASFSSWGPLSDFSLKPDLSAPGYQVVSTVNDNQYQTMSGTSMAGPFAAGSAALVIQRLKQTNPELKGAELVAATKALLMNSAKVQTQNGYTTPVSPRRQGAGQIDVGAATANPVYVTAADGTSSLSLRQVDEKTTFTLTFHNLTDQEQSYSFNDLGGGYTEQRDPDSGVFHEVQLAGAHVNGVGNFTLAPKEVKDLQYTLDLQGLNKNQPVEGWLHFTNDKDKSTVVVPYLAYYGDLTSENVFDQNANEEKPDIQGNRFVNENNYPLGVTDQESLKQLVNVDSDYNWQEVAKLYESGKVAFSPNDDHQSDLIKPYAYLKQNVKDLKVEILDAKGNVVRVVSDVQGVDKSYDESGVTKDASLSVSMRDNPDAFEWDGKVYDTKTGQMVTAPDGQYTYRFVATLWNEGPNQKQTADFPVVVDTQAPSLSVKYDSATHTLSGNYEDKGAGFTDYSYVTVQVNDKVFGYKLNEGESGFDNSEKTKGHFNFTLSSDALDALSGSLNKVSVTLSDVANNTTVKTVDVPAVKDQPAVSVWNATEGVEFNKNSKDYNKENDTYTLYGSAAQDFYLNGALVQVRDGKYEVPVKTTTQDLVFSTDQAGKNVLKSFTTFTPKAFFNWQNVDGFDGNFGVNIYSVKTNDPNNAVVQAAVPLGKNVKAYAQDYFTGEVYKGQVENGVATFHVHTSINQGEDGIFKRALLTGWSEVDGPAYNDKQVTSKAGVASSNHLGVYYTTDKVNRKVYTDRADLGVDVQDEAADLSSFGPTAYPGHALADLTTRTDPNPAIHFDYLNDNDTTRFGQNAVTDGYYDSVTKKFTVTGHVDPEVKSLTVLGDSSDENAPQNQVKLGKDGKFSFSFTTENVGQRPVAYIYTDQNGQKVRGTLNVVLDTVAPTLNVDQVNGNELEVKTNNPLFKLSGVVNDNLDGYRLYVNGNNIYREFLNSGYNKLAGLNTDGTDVNPYGPHNFEESFNLNDDNNQPTTHVFTIYVVDQVGNKVEKKIAVNYDPDYVA
modifications: not fully specified; X: residue not identified in the source
- protein cleavage assay (SDS-PAGE) (IL-8): has activities against
- digestion (SDS-PAGE) (BSA, P02769): did not digest
- proteolytic activity (SDS-PAGE) (C5, P01031): None of the complement proteins tested show evidence of breakdown
- proteolytic activity (SDS-PAGE) (Properidin, P27918): None of the complement proteins tested show evidence of breakdown
- digestion (SDS-PAGE) (HSA, P02768): did not digest
- protein cleavage assay (SDS-PAGE) (C3a, P01024): has activities against
- proteolytic activity (control of enzyme stock) (C3a, P01024): shown to be active against C3a
- proteolytic activity (SDS-PAGE) (C1 inhibitor, P05155): None of the complement proteins tested show evidence of breakdown
- digestion (SDS-PAGE) (Factor XI): did not digest
- protein cleavage assay (SDS-PAGE) (IL-1β): has activities against
- proteolytic activity (SDS-PAGE) (C4): None of the complement proteins tested show evidence of breakdown
- proteolytic activity (SDS-PAGE) (C2, P06681): None of the complement proteins tested show evidence of breakdown
- protein cleavage assay (SDS-PAGE) (mouse C3a, P01027): has activities against
- proteolytic activity (SDS-PAGE) [1]: None of the complement proteins tested show evidence of breakdown
- digestion (SDS-PAGE) (Factor XIII): did not digest
- proteolytic activity (SDS-PAGE) (C2a, P06681): None of the complement proteins tested show evidence of breakdown
- protein cleavage assay (SDS-PAGE) (IL-10): has activities against
